In US11279770:

Legend:
[1] = target: human ErbB-2 (HER2) (human) (UniProt P04626); assay: FACS on stable K562-HER2 cells; negative control
[2] = target: human ErbB-2 (HER2) (human) (UniProt P04626); assay: cell-based or functional assay

| Substance | MFI [1] [MFI] | MCF-7 IC50 (pM), HRG dependent proliferation [2] [pM] |
| --- | --- | --- |
| Anti-RSV mAb (antibody) | 276 |  |
| trastuzumab + pertuzumab (1:1) |  | 352 |
